From patent US20140087995A1 (published 2014)
Numbered stars: 1 amine (or outer) side, 2 acyl side, 3 side chain; on linkers, the order of the positions; unused ones are H or OH. Bridge positions count the residues as written; N and C are the ends. Side chains are listed from the residue outwards. Ends that are not written are not given here. * marks the point of attachment. C20 diacid = O=C(O)CCCCCCCCCCCCCCCCCCC(=O)*; γGlu = O=C(O)[C@H](CCC(=O)[*:2])N[*:1]

T1: human calcitonin receptor (human, UniProt P30988 25-474)
T1 construct: whole, on cells; Membranes of BHK cells stably transfected with the human calcitonin receptor (Assay VII); also called hCTR; hCT
T1 sequence (looked up): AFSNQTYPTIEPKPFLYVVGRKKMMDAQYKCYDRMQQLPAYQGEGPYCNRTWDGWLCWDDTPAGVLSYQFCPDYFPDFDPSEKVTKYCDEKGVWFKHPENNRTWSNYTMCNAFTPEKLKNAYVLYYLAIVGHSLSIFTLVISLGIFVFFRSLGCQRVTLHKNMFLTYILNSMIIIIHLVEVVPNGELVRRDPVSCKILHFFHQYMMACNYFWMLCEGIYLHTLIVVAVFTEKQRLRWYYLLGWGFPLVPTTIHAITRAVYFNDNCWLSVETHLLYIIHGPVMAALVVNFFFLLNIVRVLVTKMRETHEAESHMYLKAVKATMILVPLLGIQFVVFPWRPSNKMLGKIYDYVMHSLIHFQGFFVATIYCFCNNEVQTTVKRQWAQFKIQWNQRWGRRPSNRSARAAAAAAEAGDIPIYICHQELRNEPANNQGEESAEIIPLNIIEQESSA


Legend:
[1] = target: T1, human calcitonin receptor; experiment: SPA competition against 125I-calcitonin, membranes of BHK cells with human calcitonin receptor (Assay VII)
Procedure: Membranes were prepared in the following way; the cells were rinsed with PBS and incubated with Versene for approximately 5 min before harvesting. The cells were flushed with PBS and the cell-suspension was centrifuged for 5 min at 1000 rpm. Cells were homogenized (Ultrathurrax) in a buffer containing 20 mM Na-HEPES and 10 mM EDTA (pH 7.4) and centrifuged at 20.000 rpm for 15 min. The resulting pellet was resuspended, homogenized and centrifuged (20.000 rpm, 15 min) in a buffer containing 20 mM Na-HEPES and 0.1 mM EDTA (pH 7.4, buffer 2). The resulting pellet was resuspended in buffer 2 and protein concentration was measured (BCA protein Assay, Pierce). The homogenate was kept cold during the whole procedure. The membranes were kept at −80° C. until use. Assay was performed in a 384 well Optiplate (PerkinElmer) in a total volume of 40 ul. Membranes were mixed with SPA beads. Final concentration of membranes 35 ng/μL final and Final concentration of SPA beads was 0.05 mg/well. Test-compounds were dissolved in DMSO and further diluted in assay buffer (50 mM Hepes, pH 7.4, 1 mM CaCl2, 5 mM MgCl₂, 0.1% OA and 0.02% Tween20). […] The final mixture was incubated for 120 min with shaking at 400 rpm at 25° C. prior to centrifugation (1500 rpm, 10 min). Samples were analyzed on TopCounter™ (Packard). The […] was calculated using (one site binding competition analysis) GraphPad Prism5 as a measure of receptor affinity.

[2] = target: T1, human calcitonin receptor; experiment: ratio of IC50 at hCTR over IC50 at hAmylin-R (SPA competition assays)
Procedure: The resulting pellet was resuspended, homogenized and centrifuged (20.000 rpm, 15 min) in a buffer containing 20 mM Na-HEPES and 0.1 mM EDTA (pH 7.4, buffer 2). The resulting pellet was resuspended in buffer 2 and protein concentration was measured (BCA protein Assay, Pierce). The homogenate was kept cold during the whole procedure. The membranes were kept at −80° C. until use. The assay was performed in a 384 well Optiplate (PerkinElmer) in a total volume of 40 ul. Membranes were mixed with SPA beads. Final concentration of membranes 35 ng/μL final and SPA beads was 0.05 mg/well. Test-compounds were dissolved in DMSO and further diluted in assay buffer (50 mM Hepes, pH 7.4, 1 mM CaCl2, 5 mM MgCl₂, 0.1% OA and 0.02% Tween20). […] The final mixture was incubated with shaking at 400 rpm for 120 min at 25° C. prior to centrifugation (1500 rpm, 10 min). Samples were analyzed on TopCounter™ (Packard). The IC₅₀ was calculated using (one site binding competition analysis) GraphPad Prism5 as a measure of receptor affinity.
Membranes were prepared in the following way; the cells were rinsed with PBS and incubated with Versene for approximately 5 min before harvesting. The cells were flushed with PBS and the cell-suspension was centrifuged for 5 min at 1000 rpm. Cells were homogenized (Ultrathurrax) in a buffer containing 20 mM Na-HEPES and 10 mM EDTA (pH 7.4) and centrifuged at 20.000 rpm for 15 min. The resulting pellet was resuspended, homogenized and centrifuged (20.000 rpm, 15 min) in a buffer containing 20 mM Na-HEPES and 0.1 mM EDTA (pH 7.4, buffer 2). The resulting pellet was resuspended in buffer 2 and protein concentration was measured (BCA protein Assay, Pierce). The homogenate was kept cold during the whole procedure. The membranes were kept at −80° C. until use. Assay was performed in a 384 well Optiplate (PerkinElmer) in a total volume of 40 ul. Membranes were mixed with SPA beads.

Binder	IC50 [1] [nM]	Ratio hCT/hAmylin binding [2]
{C20 diacid-γGlu}-GRCNTATCATQRLAHFLRHSSPNFGAIPSSTNVGHNTY-NH2 (disulfide 3-8; SMILES CC[C@H](C)[C@H](NC(=O)[C@H](C)NC(=O)CNC(=O)[C@H](Cc1ccccc1)NC(=O)[C@H](CC(N)=O)NC(=O)[C@@H]1CCCN1C(=O)[C@H](CO)NC(=O)[C@H](CO)NC(=O)[C@H](Cc1c[nH]cn1)NC(=O)[C@H](CCCNC(=N)N)NC(=O)[C@H](CC(C)C)NC(=O)[C@H](Cc1ccccc1)NC(=O)[C@H](Cc1c[nH]cn1)NC(=O)[C@H](C)NC(=O)[C@H](CC(C)C)NC(=O)[C@H](CCCNC(=N)N)NC(=O)[C@H](CCC(N)=O)NC(=O)[C@@H](NC(=O)[C@H](C)NC(=O)[C@@H]1CSSC[C@H](NC(=O)[C@H](CCCNC(=N)N)NC(=O)CNC(=O)CC[C@H](NC(=O)CCCCCCCCCCCCCCCCCCC(=O)O)C(=O)O)C(=O)N[C@@H](CC(N)=O)C(=O)N[C@@H]([C@@H](C)O)C(=O)N[C@@H](C)C(=O)N[C@@H]([C@@H](C)O)C(=O)N1)[C@@H](C)O)C(=O)N1CCC[C@H]1C(=O)N[C@@H](CO)C(=O)N[C@@H](CO)C(=O)N[C@H](C(=O)N[C@@H](CC(N)=O)C(=O)N[C@H](C(=O)NCC(=O)N[C@@H](Cc1c[nH]cn1)C(=O)N[C@@H](CC(N)=O)C(=O)N[C@H](C(=O)N[C@@H](Cc1ccc(O)cc1)C(N)=O)[C@@H](C)O)C(C)C)[C@@H](C)O, also called compound 100)	66.3	65.3
{C20 diacid-γGlu}-GRCNTATCATQRLAAFLRHSSPNFGAIPSSTNVGHNTY-NH2 (disulfide 3-8; SMILES CC[C@H](C)[C@H](NC(=O)[C@H](C)NC(=O)CNC(=O)[C@H](Cc1ccccc1)NC(=O)[C@H](CC(N)=O)NC(=O)[C@@H]1CCCN1C(=O)[C@H](CO)NC(=O)[C@H](CO)NC(=O)[C@H](Cc1c[nH]cn1)NC(=O)[C@H](CCCNC(=N)N)NC(=O)[C@H](CC(C)C)NC(=O)[C@H](Cc1ccccc1)NC(=O)[C@H](C)NC(=O)[C@H](C)NC(=O)[C@H](CC(C)C)NC(=O)[C@H](CCCNC(=N)N)NC(=O)[C@H](CCC(N)=O)NC(=O)[C@@H](NC(=O)[C@H](C)NC(=O)[C@@H]1CSSC[C@H](NC(=O)[C@H](CCCNC(=N)N)NC(=O)CNC(=O)CC[C@H](NC(=O)CCCCCCCCCCCCCCCCCCC(=O)O)C(=O)O)C(=O)N[C@@H](CC(N)=O)C(=O)N[C@@H]([C@@H](C)O)C(=O)N[C@@H](C)C(=O)N[C@@H]([C@@H](C)O)C(=O)N1)[C@@H](C)O)C(=O)N1CCC[C@H]1C(=O)N[C@@H](CO)C(=O)N[C@@H](CO)C(=O)N[C@H](C(=O)N[C@@H](CC(N)=O)C(=O)N[C@H](C(=O)NCC(=O)N[C@@H](Cc1c[nH]cn1)C(=O)N[C@@H](CC(N)=O)C(=O)N[C@H](C(=O)N[C@@H](Cc1ccc(O)cc1)C(N)=O)[C@@H](C)O)C(C)C)[C@@H](C)O)	29.2	68.6
{C20 diacid-γGlu}-GRCNTATCATQRLAAFLRHSSPNFGAIPSSTNVGPNTY-NH2 (disulfide 3-8)	3	26.5
{C20 diacid-γGlu}-GRCNTATCATQRLAHFLRHSSPNFGAIPSSTNVGPNTY-NH2 (disulfide 3-8; SMILES CC[C@H](C)[C@H](NC(=O)[C@H](C)NC(=O)CNC(=O)[C@H](Cc1ccccc1)NC(=O)[C@H](CC(N)=O)NC(=O)[C@@H]1CCCN1C(=O)[C@H](CO)NC(=O)[C@H](CO)NC(=O)[C@H](Cc1c[nH]cn1)NC(=O)[C@H](CCCNC(=N)N)NC(=O)[C@H](CC(C)C)NC(=O)[C@H](Cc1ccccc1)NC(=O)[C@H](Cc1c[nH]cn1)NC(=O)[C@H](C)NC(=O)[C@H](CC(C)C)NC(=O)[C@H](CCCNC(=N)N)NC(=O)[C@H](CCC(N)=O)NC(=O)[C@@H](NC(=O)[C@H](C)NC(=O)[C@@H]1CSSC[C@H](NC(=O)[C@H](CCCNC(=N)N)NC(=O)CNC(=O)CC[C@H](NC(=O)CCCCCCCCCCCCCCCCCCC(=O)O)C(=O)O)C(=O)N[C@@H](CC(N)=O)C(=O)N[C@@H]([C@@H](C)O)C(=O)N[C@@H](C)C(=O)N[C@@H]([C@@H](C)O)C(=O)N1)[C@@H](C)O)C(=O)N1CCC[C@H]1C(=O)N[C@@H](CO)C(=O)N[C@@H](CO)C(=O)N[C@H](C(=O)N[C@@H](CC(N)=O)C(=O)N[C@H](C(=O)NCC(=O)N1CCC[C@H]1C(=O)N[C@@H](CC(N)=O)C(=O)N[C@H](C(=O)N[C@@H](Cc1ccc(O)cc1)C(N)=O)[C@@H](C)O)C(C)C)[C@@H](C)O)	7.87	36.2
K([γGlu-γGlu-C20 diacid])CNTATCATQRLAEFLRHSSPNFGAIPSSTNVGPETY-NH2 (disulfide 2-7; N-terminus assumed; SMILES CC[C@H](C)[C@H](NC(=O)[C@H](C)NC(=O)CNC(=O)[C@H](Cc1ccccc1)NC(=O)[C@H](CC(N)=O)NC(=O)[C@@H]1CCCN1C(=O)[C@H](CO)NC(=O)[C@H](CO)NC(=O)[C@H](Cc1c[nH]cn1)NC(=O)[C@H](CCCNC(=N)N)NC(=O)[C@H](CC(C)C)NC(=O)[C@H](Cc1ccccc1)NC(=O)[C@H](CCC(=O)O)NC(=O)[C@H](C)NC(=O)[C@H](CC(C)C)NC(=O)[C@H](CCCNC(=N)N)NC(=O)[C@H](CCC(N)=O)NC(=O)[C@@H](NC(=O)[C@H](C)NC(=O)[C@@H]1CSSC[C@H](NC(=O)[C@@H](N)CCCCNC(=O)CC[C@H](NC(=O)CC[C@H](NC(=O)CCCCCCCCCCCCCCCCCCC(=O)O)C(=O)O)C(=O)O)C(=O)N[C@@H](CC(N)=O)C(=O)N[C@@H]([C@@H](C)O)C(=O)N[C@@H](C)C(=O)N[C@@H]([C@@H](C)O)C(=O)N1)[C@@H](C)O)C(=O)N1CCC[C@H]1C(=O)N[C@@H](CO)C(=O)N[C@@H](CO)C(=O)N[C@H](C(=O)N[C@@H](CC(N)=O)C(=O)N[C@H](C(=O)NCC(=O)N1CCC[C@H]1C(=O)N[C@@H](CCC(=O)O)C(=O)N[C@H](C(=O)N[C@@H](Cc1ccc(O)cc1)C(N)=O)[C@@H](C)O)C(C)C)[C@@H](C)O)	2.13	17.6
